52 sequences from the supplement of paper PMC11780869 can be followed below.

The data set relates to Bacillus subtilis. Kind of data set: cleaved RNA product abundance (RNA/gDNA barcode ratio) relative to median wild-type variant (ratio to wild type); higher = more accumulation of the downstream cleavage product. Particulars: cleavage site: cggR-gapA (positions -7 to +36 mutated). As to the method: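 MPRA in B. subtilis. Mutagenized RNase Y cleavage-site regions (9% mutation rate) were inserted into a barcoded reporter mRNA (truncated aprE or tetM). Cells were grown in LB at 37°C to OD600 0.3. The cleaved RNA isoform was gel-purified and its barcodes counted; the RNA:gDNA barcode ratio was normalised to the median wild-type variant, and the median over barcodes is reported per variant. The printed sequence is the variable window only; the reporter flanks are not printed.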

[1] abbreviates: experiment (reporter, strain, medium): exp 2b: truncated aprE reporter, strain BJT200.
[2] abbreviates: experiment (reporter, strain, medium): exp 4a: truncated aprE reporter, strain BJT201 with 2% xylose (RNase J1 expressed).

Take “ACAGACGAAGGAGCCGCAAACAAGTTATTAAGGGATGAATAATCCATCAATATAAATATCTCTCACTTATTTAAA”: the “cleaved RNA product abundance” value reads like this: under setting [1], 0.182; under setting [2], 0.192.

On to “ACAGACGAAGGAGCCGCAAACAAGTTATTAAGGGATGAATAATCCCACAATATAAATATCTCTCACTTATTTAAA”, for which the “cleaved RNA product abundance” value reads like this: under setting [1], 0.109; under setting [2], 0.255.

For the sequence “ACAGACGAAGGAGCCGCAAACAAGTTATTAAGGGATGAATAATCCCCCAATATAAATATCTCTCACTTATTTAAA”, under setting [2], the “cleaved RNA product abundance” value is 0.137.

Regarding “ACAGACGAAGGAGCCGCAAACAAGTTATTAAGGGATGAATAATCCCTAAATATAAATATCTCTCACTTATTTAAA”, the “cleaved RNA product abundance” value under setting [2] was found to be 0.47.

On to “ACAGACGAAGGAGCCGCAAACAAGTTATTAAGGGATGAATAATCCCTCAAAATAAATATCTCTCACTTATTTAAA”, for which the “cleaved RNA product abundance” value is 0.194 under setting [1] and 0.257 under setting [2].

Take “ACAGACGAAGGAGCCGCAAACAAGTTATTAAGGGATGAATAATCCCTCAACATAAATATCTCTCACTTATTTAAA”: the “cleaved RNA product abundance” value under setting [2] turned out to be 0.25.

With “ACAGACGAAGGAGCCGCAAACAAGTTATTAAGGGATGAATAATCCCTCAAGATAAATATCTCTCACTTATTTAAA”, the “cleaved RNA product abundance” value under setting [1] is 0.17.

As to “ACAGACGAAGGAGCCGCAAACAAGTTATTAAGGGATGAATAATCCCTCAATAAAAATATCTCTCACTTATTTAAA”, the “cleaved RNA product abundance” value under setting [2] was found to be 0.1.

In the case of “ACAGACGAAGGAGCCGCAAACAAGTTATTAAGGGATGAATAATCCCTCAATATAAATAACTCTCACTTATTTAAA”, the “cleaved RNA product abundance” value under setting [1] was 0.576.

For the sequence “ACAGACGAAGGAGCCGCAAACAAGTTATTAAGGGATGAATAATCCCTCAATATAAATATCTCTCACTTATTTAAA”, the “cleaved RNA product abundance” value is, setting by setting: under setting [1], 0.78; under setting [2], 0.738; (experiment (reporter, strain, medium): exp 6: tetM reporter, strain 168) 0.707.

For the sequence “ACAGACGAAGGAGCCGCAAACAAGTTATTAAGGGATGAATAATCCCTCAATATAAATTTCTCTCACTTATTTAAA”, the “cleaved RNA product abundance” value under setting [2] worked out at 0.298.

Consider “ACAGACGAAGGAGCCGCAAACAAGTTATTAAGGGATGAATAATCCCTCAATATAACTATCTCTCACTTATTTAAA”, for which, under setting [2], the “cleaved RNA product abundance” value was 0.0791.

With “ACAGACGAAGGAGCCGCAAACAAGTTATTAAGGGATGAATAATCCCTCAATATACATATCTCTCACTTATTTAAA”, the “cleaved RNA product abundance” value reads like this: under setting [1], 0.644; under setting [2], 0.536.

Regarding “ACAGACGAAGGAGCCGCAAACAAGTTATTAAGGGATGAATAATCCCTCAATATTAATATCTCTCACTTATTTAAA”, the “cleaved RNA product abundance” value under setting [1] amounted to 0.12.

“ACAGACGAAGGAGCCGCAAACAAGTTATTAAGGGATGAATAATCCCTCATTATAAATATCTCTCACTTATTTAAA”: the “cleaved RNA product abundance” value under setting [2] amounted to 0.337.

“ACAGACGAAGGAGCCGCAAACAAGTTATTAAGGGATGAATAATCCCTCCATATAAATATCTCTCACTTATTTAAA”: the “cleaved RNA product abundance” value under setting [2] stood at 0.207.

Regarding “ACAGACGAAGGAGCCGCAAACAAGTTATTAAGGGATGAATAATCCCTCTATATAAATATCTCTCACTTATTTAAA”, the “cleaved RNA product abundance” value under setting [2] was 0.46.

In the case of “ACAGACGAAGGAGCCGCAAACAAGTTATTAAGGGATGAATAATCCCTGAATATAAATATCTCTCACTTATTTAAA”, the “cleaved RNA product abundance” value under setting [2] was found to be 0.455.

With “ACAGACGAAGGAGCCGCAAACAAGTTATTAAGGGATGAATAATCCCTTAATATAAATATCTCTCACTTATTTAAA”, the “cleaved RNA product abundance” value under setting [2] is 0.287.

Turning to “ACAGACGAAGGAGCCGCAAACAAGTTATTAAGGGATGAATAATCCGTCAATATAAATATCTCTCACTTATTTAAA”, the “cleaved RNA product abundance” value under setting [2] was 0.187.

With “ACAGACGAAGGAGCCGCAAACAAGTTATTAAGGGATGAATAATCTCTCAATATAAATATCTCTCACTTATTTAAA”, the “cleaved RNA product abundance” value under setting [1] came out at 0.529 and the “cleaved RNA product abundance” value under setting [2] came out at 0.573.

“ACAGACGAAGGAGCCGCAAACAAGTTATTAAGGGATGAATAATGCCTCAATATAAATATCTCTCACTTATTTAAA”: the “cleaved RNA product abundance” value under setting [2] turned out to be 0.0993.

As for “ACAGACGAAGGAGCCGCAAACAAGTTATTAAGGGATGAATAATTCCTCAATATAAATATCTCTCACTTATTTAAA”, under setting [2], the “cleaved RNA product abundance” value came out at 0.422.

For “ACAGACGAAGGAGCCGCAAACAAGTTATTAAGGGATGAATATTCCCTCAATATAAATATCTCTCACTTATTTAAA”, the “cleaved RNA product abundance” value under setting [2] worked out at 0.608.

As to “ACAGACGAAGGAGCCGCAAACAAGTTATTAAGGGATGAATTATCCCTCAATATAAATATCTCTCACTTATTTAAA”, the “cleaved RNA product abundance” value under setting [1] worked out at 0.669.

Regarding “ACAGACGAAGGAGCCGCAAACAAGTTATTAAGGGATGACTAATCCCTCAATATAAATATCTCTCACTTATTTAAA”, the “cleaved RNA product abundance” value is 0.557 under setting [1] and 0.522 under setting [2].

Turning to “ACAGACGAAGGAGCCGCAAACAAGTTATTAAGGGATGGATAATCCCTCAATATAAATATCTCTCACTTATTTAAA”, the “cleaved RNA product abundance” value under setting [2] was 0.545.

On to “ACAGACGAAGGAGCCGCAAACAAGTTATTAAGGGATGTATAATCCCTCAATATAAATATCTCTCACTTATTTAAA”, for which the “cleaved RNA product abundance” value under setting [2] turned out to be 0.478.

As to “ACAGACGAAGGAGCCGCAAACAAGTTATTAAGGGATTAATAATCCCTCAATATAAATATCTCTCACTTATTTAAA”, the “cleaved RNA product abundance” value under setting [1] came to 1.02 and the “cleaved RNA product abundance” value under setting [2] is 0.656.

As for “ACAGACGAAGGAGCCGCAAACAAGTTATTAAGGGCTGAATAATCCCTCAATATAAATATCTCTCACTTATTTAAA”, the “cleaved RNA product abundance” value under setting [2] was 0.471.

Regarding “ACAGACGAAGGAGCCGCAAACAAGTTATTAAGGGTTGAATAATCCCTCAATATAAATATCTCTCACTTATTTAAA”, the “cleaved RNA product abundance” value under setting [2] came to 0.183.

Turning to “ACAGACGAAGGAGCCGCAAACAAGTTATTAAGGTATGAATAATCCCTCAATATAAATATCTCTCACTTATTTAAA”, the “cleaved RNA product abundance” value under setting [1] was 0.102 and the “cleaved RNA product abundance” value under setting [2] was 0.0749.

For the sequence “ACAGACGAAGGAGCCGCAAACAAGTTATTAAGTGATGAATAATCCCTCAATATAAATATCTCTCACTTATTTAAA”, the “cleaved RNA product abundance” value under setting [1] was 0.0954 and the “cleaved RNA product abundance” value under setting [2] came out at 0.0967.

For the sequence “ACAGACGAAGGAGCCGCAAACAAGTTATTAATGGATGAATAATCCCTCAATATAAATATCTCTCACTTATTTAAA”, the “cleaved RNA product abundance” value is, setting by setting: under setting [1], 0.0836; under setting [2], 0.112.

“ACAGACGAAGGAGCCGCAAACAAGTTATTATGGGATGAATAATCCCTCAATATAAATATCTCTCACTTATTTAAA”: under setting [2], the “cleaved RNA product abundance” value is 0.213.

With “ACAGACGAAGGAGCCGCAAACAAGTTATTCAGGGATGAATAATCCCTCAATATAAATATCTCTCACTTATTTAAA”, the “cleaved RNA product abundance” value under setting [1] was 0.495.

For the sequence “ACAGACGAAGGAGCCGCAAACAAGTTATTTAGGGATGAATAATCCCTCAATATAAATATCTCTCACTTATTTAAA”, the “cleaved RNA product abundance” value under setting [2] stood at 0.67.

As to “ACAGACGAAGGAGCCGCAAACAAGTTTTTAAGGGATGAATAATCCCTCAATATAAATATCTCTCACTTATTTAAA”, the “cleaved RNA product abundance” value worked out at 0.289 under setting [1] and 0.304 under setting [2].

As to “ACAGACGAAGGAGCCGCAAACAATTTATTAAGAGATGAATAATCCCTCAATATAAATATCTCTCACTTATTTAAA”, under setting [2], the “cleaved RNA product abundance” value is 0.128.

Turning to “ACAGACGAAGGAGCCGCAAACAATTTATTAAGGGATGAATAATCCCTCAATATAAATATCTCTCACTTATTTAAA”, the “cleaved RNA product abundance” value under setting [2] amounted to 0.756.

In the case of “ACAGACGAAGGAGCCGCAAACACGTTATTAAGGGATGAATAATCCCTCAATATAAATATCTCTCACTTATTTAAA”, under setting [2], the “cleaved RNA product abundance” value came to 1.21.

In the case of “ACAGACGAAGGAGCCGCAAACTAGTTATTAAGGGATGAATAATCCCTCAATATAAATATCTCTCACTTATTTAAA”, under setting [2], the “cleaved RNA product abundance” value was 0.991.

“ACAGACGAAGGAGCCGCAAAGAAAATATTAAGGGATGAATAATCCCTCAATATAAATATCTCTCACTTATTTAAA”: the “cleaved RNA product abundance” value under setting [2] was determined as 0.697.

For “ACAGACGAAGGAGCCGCAAAGAAACTATTAAGGGATGAATAATCCCTCAATATAAATATCTCTCACTTATTTAAA”, the “cleaved RNA product abundance” value is, setting by setting: under setting [1], 0.644; under setting [2], 0.557.

Consider “ACAGACGAAGGAGCCGCAAAGAAAGTTATTAAGGGATGAATAATCCCTCAATATAAATATCTCTCACTTATTTAA”, for which the “cleaved RNA product abundance” value under setting [2] is 0.775.

Consider “ACAGACGAAGGAGCCGCAAAGAAATAATTAAGCGATGAATAATCCCTCAATATAAATATCTCTCACTTATTTAAA”, for which, under setting [2], the “cleaved RNA product abundance” value amounted to 0.166.

Turning to “ACAGACGAAGGAGCCGCAAAGAAATAATTAAGGGATGAATAATCCCTCAATATAAATATCTCTCACTTATTTAAA”, the “cleaved RNA product abundance” value is, setting by setting: under setting [1], 0.25; under setting [2], 0.381.

Turning to “ACAGACGAAGGAGCCGCAAAGAAATGATTAAGGGATGAATAATCCCTCAATATAAATATCTCTCACTTATTTAAA”, the “cleaved RNA product abundance” value reads like this: under setting [1], 0.354; under setting [2], 0.457.

“ACAGACGAAGGAGCCGCAAAGAAATTAATAAGGGATGAATAATCCCTCAATATAAATATCTCTCACTTATTTAAA”: the “cleaved RNA product abundance” value is 0.223 under setting [1] and 0.245 under setting [2].

For the sequence “ACAGACGAAGGAGCCGCAAAGAAATTACTAAGGGATGAATAATCCCTCAATATAAATATCTCTCACTTATTTAAA”, the “cleaved RNA product abundance” value under setting [2] was found to be 0.247.

For the sequence “ACAGACGAAGGAGCCGCAAAGAAATTAGTAAGGGATGAATAATCCCTCAATATAAATATCTCTCACTTATTTAAA”, the “cleaved RNA product abundance” value by setting is: under setting [1], 0.339; under setting [2], 0.34.

As to “ACAGACGAAGGAGCCGCAAAGAAATTATAAAGGGATGAATAATCCCTCAATATAAATATCTCTCACTTATTTAAA”, the “cleaved RNA product abundance” value under setting [1] was 0.215 and the “cleaved RNA product abundance” value under setting [2] came out at 0.342.
